We go through 21 molecules from patent publication US20100239597A1 (NORTHWESTERN UNIVERSITY, published 2010).

Where a chain is given by its changes, count along the chain named.

To fix the notation:
T1: biotin-Aβ1-20 (UniProt P05067 672-691, biotin (site not stated))
T1 construct: domain: Aβ1-20; Monomeric Aβ fragment used as BIACORE antigen; also called biotinylated-Aβ1-20
T1 peptide (looked up): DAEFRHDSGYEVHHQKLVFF

B1: Hu20C2A3 (veneered version of clone A3, IgG2m4 isotype) (antibody, V domains shown)
VH: QVTLKESGPGLLKPTQTLTLTCTLSGFSLSTSGMGVGWFRQPPGKGLEWLAHIWWDDDKSYNPSLKSRLTISKDTSKNQVVLTITNVDPVDTATYYCARRQLGTRGTDAMDYWGQGTTVTVSS
VL: DVVMTQTPLSLPVTPGQPASISCRSSQSILHSNGNTYLEWYLQKPGQSPQLLIYKVSNRFSGVPDRFSGSGSGTDFTLKISRVEAEDVGVYYCLQTTRVPLTFGQGTKLEIKR
notes: To be checked against the listing; also called Hu20C2A3 IgG2m4
B2: 20C2-18A IgG1 (antibody, V domains shown)
VH: B1 VH with G10A, L12V, L24F, F39I, G46A, I84M, V87M, T104L, G106S, T107I
VL: DVVMTQSPLSLPVTPGEPASISCRSSQSILHSNGNTYLEWYLQKPGQSPQLLIYKVSNRFSGVPDRFSGSGSGTDFTLKISRVEAEDVGVYYCMQSSFVPLTFGQGTKLEIK
notes: also called SJ-p1-9M
B3: 20C2-12A IgG1 (antibody, V domains shown)
VH: B1 VH with G10A, L12V, L24F, F39I, G46A, I84M, V87M, T104L, G106S, T107I
VL: B2 VL with M94L, F98L
notes: also called 4P1-32
B4: 20C2-20A IgG1 (antibody, V domains shown)
VH: B1 VH with G10A, L12V, L24F, F39I, G46A, I84M, V87M, T104L, G106S, T107I
VL: B2 VL with M94F, S96G, F98L, V99F, L101P, T102V
notes: also called SJ-p3-15
B5: 20C2-13A IgG1 (antibody, V domains shown)
VH: B1 VH with G10A, L12V, L24F, F39I, G46A, I84M, V87M, T104L, G106S, T107I
VL: B2 VL with M94L, S96T, F98N
notes: also called 4p1-20; 4P1-20
B6: 20C2-10A IgG1 (antibody, V domains shown)
VH: B1 VH with G10A, L12V, L24F, F39I, G46A, I84M, V87M, T104L, G106S, T107I
VL: B2 VL with M94F, S96G, F98R, V99L, L101V, T102S
notes: also called SJ-p3-33
B7: 20C2-23A IgG1 (antibody, V domains shown)
VH: B1 VH with G10A, L12V, L24F, F39I, G46A, I84M, V87M, T104L, G106S, T107I
VL: B2 VL with M94H, F98K
notes: also called 4P1-40
B8: 4b-B10 Fab (Fab, V domains shown)
VH: B1 VH with G10A, L12V, F39I, G46A, I84M, V87M, T104A, R105H, G106W, T107L
VL: B1 VL with T7S, Q17E
B9: 4a-D5 Fab (Fab, V domains shown)
VH: B1 VH with G10A, L12V, F39I, G46A, I84M, V87M, T104D, R105N, G106V, T107A
VL: B1 VL with T7S, Q17E
B10: 4a-E10 Fab (Fab, V domains shown)
VH: B1 VH with G10A, L12V, F39I, G46A, I84M, V87M, T104F, R105Q, G106S
VL: B1 VL with T7S, Q17E
B11: 4a-C9 Fab (Fab, V domains shown)
VH: B1 VH with G10A, L12V, F39I, G46A, I84M, V87M, T104Q, R105A, T107H
VL: B1 VL with T7S, Q17E
B12: 4b-A12 Fab (Fab, V domains shown)
VH: B1 VH with G10A, L12V, F39I, G46A, I84M, V87M, T104P, R105E, G106P, T107Q
VL: B1 VL with T7S, Q17E
B13: 4b-D4 Fab (Fab, V domains shown)
VH: B1 VH with G10A, L12V, F39I, G46A, I84M, V87M, T104M, R105A, G106T, T107P
VL: B1 VL with T7S, Q17E
B14: 20C2-9A Fab (Fab, V domains shown)
VH: B1 VH with G10A, L12V, L24F, F39I, G46A, I84M, V87M, T104L, G106S, T107I
VL: B1 VL with T7S, Q17E, L94V, T97S, R98L
B15: 20C2-18A Fab (Fab, V domains shown)
VH: B1 VH with G10A, L12V, L24F, F39I, G46A, I84M, V87M, T104L, G106S, T107I
VL: B1 VL with T7S, Q17E, L94M, T96S, T97S, R98F
B16: 20C2-1A Fab (Fab, V domains shown)
VH: B1 VH with G10A, L12V, L24F, F39I, G46A, I84M, V87M, T104L, G106S, T107I
VL: B1 VL with T7S, Q17E, L94F, T96A, T97S
B17: 20C2-13A Fab (Fab, V domains shown)
VH: B1 VH with G10A, L12V, L24F, F39I, G46A, I84M, V87M, T104L, G106S, T107I
VL: B1 VL with T7S, Q17E, T97S, R98N
B18: 20C2-12A Fab (Fab, V domains shown)
VH: B1 VH with G10A, L12V, L24F, F39I, G46A, I84M, V87M, T104L, G106S, T107I
VL: B1 VL with T7S, Q17E, T96S, T97S, R98L
B19: 20C2-7A Fab (Fab, V domains shown)
VH: B1 VH with G10A, L12V, L24F, F39I, G46A, I84M, V87M, T104L, G106S, T107I
VL: B1 VL with T7S, Q17E, Q95N, T96S, R98T
B20: 20C2-8A Fab (Fab, V domains shown)
VH: B1 VH with G10A, L12V, L24F, F39I, G46A, I84M, V87M, T104L, G106S, T107I
VL: B1 VL with T7S, Q17E
B21: 20C2-9A IgG1 (antibody, V domains shown)
VH: B1 VH with G10A, L12V, L24F, F39I, G46A, I84M, V87M, T104L, G106S, T107I
VL: B2 VL with M94V, S96T, F98L
notes: also called SJ-p2-51

One test deals with T2, Aβ40 monomer (UniProt P05067 672-711).
T2 construct: domain: Aβ(1-40); also called Aβ monomer; amyloid beta (1-40) peptide
Description: titration ELISA on Aβ40 monomer, A450 nm; Hu20C2A3 produced in CHO. Background: ELISA stands for enzyme-linked immunosorbent assay.
One may read the EC50 (read off the curve) as the concentration at which the effect is half-maximal. Lower therefore signals higher potency in that assay. For the molecule B1, the “EC50 (read off the curve)” value was roughly 40 ng/mL.

A further test has as its target T3, biotinylated ADDL (bADDL) (UniProt P05067 672-713, N-terminal biotin).
T3 construct: domain: Aβ1-42; Panning and ELISA speak of 10% biotinylated ADDL; also called bADDLs; high molecular weight bADDL
Put plainly: BIACORE, bADDL as antigen; IgG1#1.
A word on the Kd: it is the constant that tells how readily two partners part at equilibrium. Read a high Kd as a looser complex. In the case of B2, the affinity, expressed as Kd, was 0.149 nM.
Still for that read-out and setting: as for B3, the figure is 0.015 nM; as for B4, 6.9 nM; as for B5, 0.764 nM.
On the same count and under the same terms, as for B6, the figure is 7.7 nM.
With B7, the affinity, expressed as Kd, was 0.085 nM.

A further test concerns the target T4, Aβ-derived diffusible ligands (ADDLs) (UniProt P05067 672-713).
T4 construct: domain: Aβ1-42
Put plainly: titration ELISA on captured ADDL, A450 nm; Hu20C2A3 produced in Pichia. On the procedure: (§1) Affinity maturation was carried out to improve affinity and improve preferential binding to ADDL. To evaluate ADDL binding affinity of the humanized antibodies, BIACORE™ and titration ELISAs were conducted as disclosed herein. Briefly, Streptavidin-coated, 96-well microtiter plates (Sigma, St. Louis, Mo.) were coated with 10% biotinylated ADDL antigen (1 μM). A series of 2-fold dilutions of purified antibody, starting at 500 ng/mL was added to the ADDL captured plates and the plates were incubated for 2 hours at 25° C. After washing five times with PBS solution using a plate washer (Bio-Tek, Winooski, Va.), polyclonal goat anti-human kappa light chain antibody (Biomeda, Foster City, Calif.) was added at a 1/2000 dilution in 3% non-fat milk blocker and incubated at room temperature for 1 hour. A rabbit anti-goat IgG (H+L) HRP-conjugated (Bethyl Laboratories, Inc., Montgomery, Tex.) detection antibody was then added at a 1/2000 dilution in blocking solution and incubated for 1 hour at room temperature. After washing with PBS, HRP substrate, 3,3′,5′5-tetramethylbenzidine (ready-to-use TMB; Sigma, St. Louis, Mo.) was added and the reaction was stopped after 10 minutes with 0.5 N H₂SO₄. Absorbance at wavelength of 450 nm was read in a plate reader (model VICTOR V; Perkin Elmer, Boston, Mass.) and data were processed using EXCEL® work sheet.
Consider B1, for which the “EC50 (read off the curve)” value is roughly 9 ng/mL.

The next test has as its target T1, biotin-Aβ1-20. Put plainly: BIACORE, Fab against biotinylated-Aβ1-20. On the technique in general: SPR reads the build-up and loss of mass on a sensor chip optically.
In turn, B8 had a Kd of 7.43 nM.
With B9, the dissociation constant Kd worked out at 3.91 nM.
As to B10, the Kd was 3.6 nM.
Still for that read-out and setting: for B11 the value was 2.46 nM; for B12, 10.1 nM.
Regarding B13, the Kd came out at 4.87 nM.

For a further test, the target named is T2, Aβ40 monomer. Description: titration ELISA on Aβ40 monomer, A450 nm; Hu20C2A3 produced in Pichia.
For B1, the “EC50 (read off the curve)” value was roughly 40 ng/mL.

The target of another test is T3, biotinylated ADDL (bADDL). Put plainly: BIACORE, bADDL as antigen; Fab.
On to B14, for which the Kd is 40 nM.
For B15, the Kd was 85 nM.
On the same count and under the same terms, as for B16, the figure is 85 nM; as for B17, 567 nM.
The same measure, in the same setting: as for B18, the figure is 238 nM; as for B19, 435 nM.
The molecule B20 yielded a Kd of 13 nM.

A further test has as its target T3, biotinylated ADDL (bADDL). Put plainly: BIACORE, bADDL as antigen; IgG1#2.
The molecule B7 gave a Kd of 0.066 nM.
On to B21, for which the Kd was determined as 0.002 nM.

For the next test, the target named is T3, biotinylated ADDL (bADDL). Description: BIACORE, Fab against bADDL.
B8 returned a dissociation constant Kd of 62.8 nM.
B9 returned an equilibrium dissociation constant (Kd) of 1.17 nM.
B10 gave a Kd of 18.5 nM.
Regarding B11, the affinity, expressed as Kd, was 8.43 nM.
In turn, B12 showed a Kd of 154 nM.
With B13, binding was characterised by a dissociation constant (Kd) of 18.6 nM.

For another test, the target named is T4, Aβ-derived diffusible ligands (ADDLs). Description: titration ELISA on captured ADDL, A450 nm; Hu20C2A3 produced in CHO. How it is done:
as §1
Turning to B1, the “EC50 (read off the curve)” value was roughly 8 ng/mL.
